Source: PMC11374688

Experiments:
[1] = biological target: Ub(T): S. pombe Ub residues 1–74 extended with Gly–PSAN (Ub-PSAN), as cyanomethyldithioacetal in the complexes (S. pombe) (UniProt P0CG72)
[2] = biological target: S. pombe Ubc4(C21S/C107S) (S. pombe) (UniProt P46595)
S. pombe Ubc4(C21S/C107S) (S. pombe), sequence (P46595 whole entry C21S/C107S): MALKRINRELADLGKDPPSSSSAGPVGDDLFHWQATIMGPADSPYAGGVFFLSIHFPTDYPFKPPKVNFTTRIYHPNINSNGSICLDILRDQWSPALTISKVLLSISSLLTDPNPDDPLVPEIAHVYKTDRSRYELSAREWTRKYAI

UniProt P0CG72, sequence (P0CG72 1-74, one chain of several): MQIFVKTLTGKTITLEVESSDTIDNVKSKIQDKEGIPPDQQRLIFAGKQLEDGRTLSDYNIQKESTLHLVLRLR

- E2~Ub(T)-to-E3^HECT pulse–chase transthiolation, fold loss of activity against wild type [1]: 30 fold
- E2~Ub(T)-to-E3^HECT pulse–chase transthiolation, fold loss of activity against wild type [2]: 30 fold
B1: S. pombe Pub2^HECT (295–671) F640A (domain or fragment)
chain: DEYQRKIAYMYDRPEMAVNDAQLQLKVSRATTFEDAYDIISKLSVSDMKKKLLIRFRNEDGLDYGGVSREFFYILSHAIFNPGYSLFEYATDDNYGLQISPLSSVNPDFRSYFRFVGRVMGLAIYHRRYLDVQFVLPFYKRILQKPLCLEDVKDVDEVYYESLKWIKNNDVDESLCLNFSVEENRFGESVTVDLIPNGRNIAVNNQNKMNYLKALTEHKLVTSTEEQFNALKGGLNELIPDSVLQIFNENELDTLLNGKRDIDVQDWKRFTDYRSYTETDDIVIWFWELLSEWSPEKKAKLLQFATGTSRLPLSGFKDMHGSDGPRKFTIEKVGHISQLPKAHTCANRLDIPPYNSKEELEQKLTIAIQETAGFGTE
